T1: human CXCR2 (human, UniProt P25025 1-360)
T1 construct: also called CXC chemokine receptor 2; hCXCR2
T1 sequence: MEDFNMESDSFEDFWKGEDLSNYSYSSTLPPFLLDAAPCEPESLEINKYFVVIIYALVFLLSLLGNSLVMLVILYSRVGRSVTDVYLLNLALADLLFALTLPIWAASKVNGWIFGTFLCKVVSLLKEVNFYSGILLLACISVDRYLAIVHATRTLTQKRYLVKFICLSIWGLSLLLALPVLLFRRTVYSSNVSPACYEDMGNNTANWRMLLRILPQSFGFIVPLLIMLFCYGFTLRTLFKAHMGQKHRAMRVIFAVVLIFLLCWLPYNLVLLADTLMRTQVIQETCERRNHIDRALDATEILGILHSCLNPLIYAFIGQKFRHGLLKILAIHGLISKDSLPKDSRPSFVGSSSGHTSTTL

B1: BKO-4A8 combinatorial variant 2c (antibody, human IgG4 S228P, lambda, V domains shown)
VH: EVQLLESGGGLVQPGGSLRLSCAASGFTFSSSTQSWVRQPPGKGLEWVSAISGRGRSTYYADSVKGRFTISRDNSRNTLYLQMNSLRAEDTAVYYCAIQMGYWGQGILVTVSS
VL: QSALTQPPSASGSPGQSVTISCIGTSSDVGGYNYVSWYQQHPGKAPKLMIYEVSKRPSGVPDRFSGSKSGNTASLTVSGLQAEDEADYYCSSYAGSNNFGVFGGGTKLTVLG
notes: IgG4 S228P, lambda
B2: BKO-4A8 combinatorial variant 6c (antibody, human IgG4 S228P, lambda, V domains shown)
VH: B1 VH with R76K, I98K, M100K
VL: B1 VL
notes: IgG4 S228P, lambda
B3: BKO-4A8 combinatorial variant 6b (antibody, human IgG4 S228P, lambda, V domains shown)
VH: B1 VH with R76K, I98K, M100K
VL: B1 VL with G43D
notes: IgG4 S228P, lambda
B4: BKO-4A8 combinatorial variant 4b (antibody, human IgG4 S228P, lambda, V domains shown)
VH: B1 VH with M100K
VL: B1 VL with G43D
notes: IgG4 S228P, lambda
B5: BKO-4A8 combinatorial variant 9c (antibody, human IgG4 S228P, lambda, V domains shown)
VH: B1 VH with P40A, R76K, M100K
VL: B1 VL
notes: IgG4 S228P, lambda
B6: BKO-4A8 combinatorial variant 10b (antibody, human IgG4 S228P, lambda, V domains shown)
VH: B1 VH with Q34M, P40A, S57N, I98K, M100K
VL: B1 VL with G43D
notes: IgG4 S228P, lambda
B7: BKO-4A8 combinatorial variant 4c (antibody, human IgG4 S228P, lambda, V domains shown)
VH: B1 VH with M100K
VL: B1 VL
notes: IgG4 S228P, lambda
B8: BKO-4A8 combinatorial variant 7b (antibody, human IgG4 S228P, lambda, V domains shown)
VH: B1 VH with I98K, M100K
VL: B1 VL with G43D
notes: IgG4 S228P, lambda
B9: BKO-4A8 combinatorial variant 5c (antibody, human IgG4 S228P, lambda, V domains shown)
VH: B1 VH with R76K, M100K
VL: B1 VL
notes: IgG4 S228P, lambda
B10: BKO-4A8 combinatorial variant 7c (antibody, human IgG4 S228P, lambda, V domains shown)
VH: B1 VH with I98K, M100K
VL: B1 VL
notes: IgG4 S228P, lambda
B11: BKO-4A8 combinatorial variant 10c (antibody, human IgG4 S228P, lambda, V domains shown)
VH: B1 VH with Q34M, P40A, S57N, I98K, M100K
VL: B1 VL
notes: IgG4 S228P, lambda
B12: BKO-4A8 combinatorial variant 9b (antibody, human IgG4 S228P, lambda, V domains shown)
VH: B1 VH with P40A, R76K, M100K
VL: B1 VL with G43D
notes: IgG4 S228P, lambda
B13: BKO-4A8 combinatorial variant 3b (antibody, human IgG4 S228P, lambda, V domains shown)
VH: B1 VH with R76K
VL: B1 VL with G43D
notes: IgG4 S228P, lambda
B14: BKO-4A8 combinatorial variant 5b (antibody, human IgG4 S228P, lambda, V domains shown)
VH: B1 VH with R76K, M100K
VL: B1 VL with G43D
notes: IgG4 S228P, lambda
B15: BKO-4A8 combinatorial variant 3c (antibody, human IgG4 S228P, lambda, V domains shown)
VH: B1 VH with R76K
VL: B1 VL
notes: IgG4 S228P, lambda
B16: BKO-4A8 variant VH M96A (antibody, human IgG4 S228P, lambda, V domains shown)
VH: B1 VH with Q34M, P40A, S57N, M100A
VL: B1 VL with G43D, S54N, S96N
notes: IgG4 S228P, lambda; parental light chain; also called 4A8 VH M96A
B17: BKO-4A8 variant VL N94K (antibody, human IgG4 S228P, lambda, V domains shown)
VH: B1 VH with Q34M, P40A, S57N
VL: B1 VL with G43D, S54N, S96K
notes: IgG4 S228P, lambda; parental heavy chain; also called 4A8 VL N94K
B18: BKO-4A8 variant VH M96Q (antibody, human IgG4 S228P, lambda, V domains shown)
VH: B1 VH with Q34M, P40A, S57N, M100Q
VL: B1 VL with G43D, S54N, S96N
notes: IgG4 S228P, lambda; parental light chain; also called 4A8 VH M96Q
B19: BKO-4A8 variant VH N56S (antibody, human IgG4 S228P, lambda, V domains shown)
VH: B1 VH with Q34M, P40A
VL: B1 VL with G43D, S54N, S96N
notes: IgG4 S228P, lambda; parental light chain; also called 4A8 VH N56S
B20: BKO-4A8 variant VL N52S (antibody, human IgG4 S228P, lambda, V domains shown)
VH: B1 VH with Q34M, P40A, S57N
VL: B1 VL with G43D, S96N
notes: IgG4 S228P, lambda; parental heavy chain; also called 4A8 VL N52S
B21: BKO-4A8 variant VH I94K (antibody, human IgG4 S228P, lambda, V domains shown)
VH: B1 VH with Q34M, P40A, S57N, I98K
VL: B1 VL with G43D, S54N, S96N
notes: IgG4 S228P, lambda; parental light chain; also called 4A8 VH I94K
B22: BKO-4A8 variant VH M34H (antibody, human IgG4 S228P, lambda, V domains shown)
VH: B1 VH with Q34H, P40A, S57N
VL: B1 VL with G43D, S54N, S96N
notes: IgG4 S228P, lambda; parental light chain; also called 4A8 VH M34H
B23: BKO-4A8 variant VH M96K (antibody, human IgG4 S228P, lambda, V domains shown)
VH: B1 VH with Q34M, P40A, S57N, M100K
VL: B1 VL with G43D, S54N, S96N
notes: IgG4 S228P, lambda; parental light chain; also called 4A8 VH M96K
B24: BKO-4A8 variant VH M34Q (antibody, human IgG4 S228P, lambda, V domains shown)
VH: B1 VH with P40A, S57N
VL: B1 VL with G43D, S54N, S96N
notes: IgG4 S228P, lambda; parental light chain; also called 4A8 VH M34Q

Positions count from the first letter of the chain named. In names and notes the source's numbering stands.

For the first assay, the target named is T1, human CXCR2. The assay is described as follows: flow cytometry, CXCR2-transfected Expi293F cells. How it is done: (§1) Harvested cells were resuspended in FACS buffer (1×PBS+0.5% (w/v) bovine serum albumin (BSA)+2 mM EDTA pH 7.2). Approximately 2×10⁵ cells were added per well in a 96-well round-bottomed plate. Cells were pelleted by centrifugation at 400 g for 5 mins at 4° C. and supernatants discarded. 25 μL of each test antibody or control antibody was added to the cells and incubated for 30 minutes at 4° C. Cells were washed twice in 100 μL FACS buffer followed by centrifugation at 400 g for 5 mins at 4° C.
(§2) For detection, 50 μL of secondary antibody (Table 2) was added to relevant samples. Commercially available antibodies that bound to transfected CXCR family members were used as positive controls to ensure that the cells were expressing the receptors. Cells were washed twice in 200 μL of FACS buffer followed by centrifugation at 400 g for 5 mins at 4° C. Before sample acquisition, cells were resuspended in 100 μL of FACS buffer. Samples were acquired using the high throughput sampler on a FACSCanto™ II cytometer (Beckton-Dickinson).
Each heavy chain was co-expressed with each light chain to produce a sequence optimized antibody variant. Antibodies were purified and tested for CXCR2 binding activity as described in General Methods.
(In flow cytometry, cells or beads pass a laser one at a time.)
One may read the EC50 as the concentration at which the effect is half-maximal. The low end stands for a more potent agent, the high end for a less potent agent. Turning to B1, the response was half-maximal at 0.3 nM (EC50) and the “Fold Improvement over 4A8 WT” value was determined as 1.67 fold.
Taken in the same sequence, the figures for B2 were 0.9 nM and 0.44 fold.
As for B3, the EC50 worked out at 0.4 nM and the “Fold Improvement over 4A8 WT” value stood at 1 fold.
On to B4, for which the EC50 stood at 0.4 nM and the “Fold Improvement over 4A8 WT” value turned out to be 1.25 fold.
Taken in the same sequence, the figures for B5 were 6.4 nM and 0.14 fold.
Regarding B6, it took 0.3 nM to reach a half-maximal effect (EC50) and the “Fold Improvement over 4A8 WT” value came out at 1.67 fold.
As to B7, the EC50 is 0.4 nM and the “Fold Improvement over 4A8 WT” value was 1.25 fold.
Taken in the same sequence, the figures for B8 were 0.8 nM and 0.63 fold.
With B9, the EC50 stood at 0.4 nM and the “Fold Improvement over 4A8 WT” value is 1.25 fold.
Turning to B10, it took 1 nM to reach a half-maximal effect (EC50) and the “Fold Improvement over 4A8 WT” value amounted to 0.5 fold.
Taken in the same sequence, the figures for B11 were 0.5 nM and 1 fold.
Regarding B12, the EC50 is 0.3 nM and the “Fold Improvement over 4A8 WT” value stood at 3 fold.
For B13, the EC50 turned out to be 0.1 nM and the “Fold Improvement over 4A8 WT” value was 4 fold.
With B14, the EC50 came to 0.4 nM and the “Fold Improvement over 4A8 WT” value is 1.25 fold.
Taken in the same sequence, the figures for B15 were 0.2 nM and 2 fold.

In a further assay the target is T1, human CXCR2. The assay is described as follows: flow cytometry, CXCR2-transfected Expi293F cells. The source holds these as a separate data set. How it is done:
as §1, §2
Each variant heavy chain was co-expressed with the parental light chain and vice versa.
For B16, the “Fold change in binding relative to BKO-4A8” value was determined as 1.5 fold.
Same read-out and setting: with B17 the figure was 1.33 fold.
Take B18: the “Fold change in binding relative to BKO-4A8” value came to 1.5 fold.
The same measure, in the same setting: the value for B19 was 1 fold; that for B20 was 1 fold; that for B21 was 0.7 fold.
Still for that read-out and setting: with B22 the figure was 0.8 fold; with B23, 1 fold.
On the same count and under the same terms, with B24 the figure was 1 fold.

For another assay, the target named is T1, human CXCR2. The assay is described as follows: cell-based or functional assay.
On to B16, for which the “IC50, CXCL1, Tango assay” value was 0.14 nM and the “IC50, CXCL8, Tango assay” value was 0.126 nM.
Taken in the same sequence, the figures for B17 were 0.123 nM and 0.113 nM.
Consider B18, for which the “IC50, CXCL1, Tango assay” value is 0.33 nM and the “IC50, CXCL8, Tango assay” value worked out at 0.14 nM.
Regarding B19, the “IC50, CXCL1, Tango assay” value is 0.158 nM and the “IC50, CXCL8, Tango assay” value is 0.129 nM.
Taken in the same sequence, the figures for B20 were 0.214 nM and 0.126 nM.
Taken in the same sequence, the figures for B21 were 0.078 nM and 0.071 nM.
Taken in the same sequence, the figures for B22 were 0.186 nM and 0.107 nM.
As to B23, the “IC50, CXCL1, Tango assay” value came out at 0.135 nM and the “IC50, CXCL8, Tango assay” value is 0.091 nM.
Taken in the same sequence, the figures for B24 were 0.242 nM and 0.0776 nM.

Source of the values: patent US20240301076A1 (CEPHALON, published 2024).
